Changes are numbered by the printed parent chain.
Key:
Experiment in all cases: immunofluorescence on transfected, formalin-fixed C2C12 cells, IgG at 10 µg/mL, Alexa 594 anti-rat IgG
[1] = biological target: T1, human ALK2-L196P on cells (human, UniProt Q04771 21-509)
T1 sequence: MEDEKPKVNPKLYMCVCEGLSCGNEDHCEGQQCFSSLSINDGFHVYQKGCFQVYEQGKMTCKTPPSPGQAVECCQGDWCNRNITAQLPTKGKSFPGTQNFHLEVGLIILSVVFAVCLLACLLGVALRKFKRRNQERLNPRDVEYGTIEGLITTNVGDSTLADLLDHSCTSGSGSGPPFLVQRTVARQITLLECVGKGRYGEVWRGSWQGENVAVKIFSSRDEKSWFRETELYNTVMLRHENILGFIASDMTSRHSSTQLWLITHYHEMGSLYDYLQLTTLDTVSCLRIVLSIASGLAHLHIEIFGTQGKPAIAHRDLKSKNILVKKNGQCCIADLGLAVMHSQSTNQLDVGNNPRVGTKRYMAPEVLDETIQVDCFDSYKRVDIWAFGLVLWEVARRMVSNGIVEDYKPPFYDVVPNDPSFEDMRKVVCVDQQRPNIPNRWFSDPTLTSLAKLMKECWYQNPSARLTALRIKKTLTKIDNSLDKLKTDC
Description: (§1) Mouse C2C12 cells were seeded into a 96-well plate (Greiner Bio-One) at 0.5×10³ cells/well, and cultured in 15% FBS-containing DMEM medium overnight under the conditions of 5% CO₂ at 37° C. On the following day, the C2C12 cells were transfected with each of a wild-type human ALK2 cDNA integrated into pcDEF3; pcDEF3/human ALK2-L196P, pcDEF3/human ALK2-P197_F198delinsL, pcDEF3/human ALK2-R202I, pcDEF3/human ALK2-R206H, pcDEF3/human ALK2-Q207E, pcDEF3/human ALK2-R258S, pcDEF3/human ALK2-G325A, pcDEF3/human ALK2-G328E, pcDEF3/human ALK2-G328R, pcDEF3/human ALK2-G328W, pcDEF3/human ALK2-G356D, and pcDEF3/human ALK2-R375P, which are variants identified in FOP; and pcDEF3 as a control, using Lipofectamine 2000 (Invitrogen), and further cultured overnight.
(§2) The C2C12 cells were fixed with 10% neutral formalin (Nacalai Tesque, Japan) for 20 minutes at room temperature, and then blocked with 10% goat normal serum for 30 minutes. After the blocking agent was removed, purified IgG diluted to 10 μg/mL with the blocking agent was added, and the cells were left for 1 hour at room temperature. After the cells were washed with PBS three times, Goat Alexa 594-conjugated anti-rat IgG (Invitrogen) diluted to 1:1000 with the blocking agent was added, and the cells were left for 1 hour at room temperature. After the cells were washed with PBS three times, the cells were fixed with 10% neutral formalin for 15 minutes at room temperature, and nuclear-stained with DAPI (LifeTechnologies). Fluorescent signals were analyzed with a fluorescence microscope BZ-9000 (Keyence).

[2] = biological target: T2, human ALK2-G328W on cells (human, UniProt Q04771 21-509)
T2 sequence: T1 sequence with P176L, G308W
Description: as §1, §2

[3] = biological target: T3, human ALK2-R375P on cells (human, UniProt Q04771 21-509)
T3 sequence: T1 sequence with P176L, R355P
Description: as §1, §2

[4] = biological target: T4, human ALK2-P197_F198delinsL on cells (human, UniProt Q04771 21-509)
T4 construct: also called delP197_F198insL
T4 sequence: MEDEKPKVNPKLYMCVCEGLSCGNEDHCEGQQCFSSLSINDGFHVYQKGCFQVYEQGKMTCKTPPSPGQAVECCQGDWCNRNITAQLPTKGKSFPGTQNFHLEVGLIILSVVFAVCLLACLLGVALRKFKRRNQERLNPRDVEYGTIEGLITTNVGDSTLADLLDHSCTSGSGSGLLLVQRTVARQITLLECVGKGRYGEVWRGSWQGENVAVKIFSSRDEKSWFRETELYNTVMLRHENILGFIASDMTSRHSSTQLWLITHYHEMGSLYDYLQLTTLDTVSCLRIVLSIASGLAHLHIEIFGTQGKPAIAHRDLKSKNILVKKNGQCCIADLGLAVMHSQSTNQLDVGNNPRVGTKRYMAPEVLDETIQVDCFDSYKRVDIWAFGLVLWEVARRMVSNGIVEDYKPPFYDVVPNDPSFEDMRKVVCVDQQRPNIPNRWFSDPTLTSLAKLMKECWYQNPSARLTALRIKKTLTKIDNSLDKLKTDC
Description: as §1, §2

Measured: binding result

B1: rat anti-ALK2 monoclonal antibody A2-25C (antibody, V domains shown)
VH: EVQLVESGGGLVQPGGSLKLSCAASGFTFSYYAMSWVCQAPTKGLEWVASISRGGDNTYYRDTVKGRFTTSRDNAKNTLYLQMDSLRSEDTATYYCARLNYNNYFDYWGQGVMVTVSS
VL: DIQMTQSPASLSASLEEIVTITCQASQDIGNWLSWYQQKPGKSPQLLIYGATSLADGVPSRFSGSRSGTQYSLKISRLRVEDIGIYYCLQAYSAPFTFGSGTKLEIKR
notes: Rat monoclonal IgG from a hybridoma; also called 25C11
binds: all assays above

B2: rat anti-ALK2 monoclonal antibody A2-27D (antibody, V domains shown)
VH: EVQLVESGGGLVQPGRSLKLSCLASGSTFSNYGMKWIRQAPGKGLEWVASISRSSTYIYYADTVKGRFTISRDNARNTLYLQMTSLRSEDTALYYCAAAISTPFYWYFDFWGPGTVVTVSS
VL: EIVLTQSPTTMAASPGEKVTLNCLASSSVSYMTWYQQKSGASPKLWIYGTSNLASGVPNRFSGSGSGTSYSLAISSMEAEDVATYYCLHLTSYPPYTFGAGTKLELKR
notes: Rat monoclonal IgG from a hybridoma; also called 27D11
binds: all assays above

Source: patent publication US20220041738A1 (SAITAMA MEDICAL UNIVERSITY, published 2022)
